Assay results published in US7709002 (US Dept. of Health and Human Services, dated 2010).

Tests used:
HLA-A2 [1] = target: HLA-A2 (human); assay: T2 bioassay (peptide 50 µg/ml + b2m 3 µg/ml, overnight), flow cytometry, stained with anti-HLA-A2 MAb
HLA-A2 [2] = target: HLA-A2 (human); assay: T2 bioassay (peptide 50 µg/ml + b2m 3 µg/ml, overnight), flow cytometry, stained with pan class I MAb W6/32

B1: wild-type ras5-14(Gly12) peptide (peptide)
peptide: KLVVVGAGGV
notes: also called ras5-14(G12); normal ras 10-mer
**Q.** Which results are given for B1?
**A.** MFI (HLA-A2 [1]): 285; MFI (HLA-A2 [2]): 523
